Columns and labels:
[1] = tested on: MBP-P6.9 NE-FLAG (7E, hyper-phosphorylation mimic) (Autographa californica multiple nucleopolyhedrovirus (AcMNPV)); experiment: fluorescence polarization; settings: FP: 50 mM HEPES pH 7.5, 0.005% sarcosyl, 100 mM NaCl, 0.5 mM EDTA, 1 mM DTT, 20 nM DNA, 1 h at 4 C, EMSA: 50 mM Tris pH 7.4, 100 mM NaCl, 1 mM EDTA
[2] = tested on: MBP-P6.9 NA-FLAG (7A, hypo-phosphorylation mimic) (Autographa californica multiple nucleopolyhedrovirus (AcMNPV)); experiment: fluorescence polarization; settings: FP: 50 mM HEPES pH 7.5, 0.005% sarcosyl, 100 mM NaCl, 0.5 mM EDTA, 1 mM DTT, 20 nM DNA, 1 h at 4 C, EMSA: 50 mM Tris pH 7.4, 100 mM NaCl, 1 mM EDTA

39-bp DNA
Kd [1]: 1.75 µM | Kd [2]: 0.45 µM
